According to US20220064329A1 (Novo Nordisk, published 2022):

Target: T1, recombinant human activated Factor VII (FVIIa) (human, UniProt P08709 61-212; P08709 213-466, ten glutamate residues of the Gla domain may be gamma-carboxylated)
T1 construct: chains tethered by a disulfide bond; also called Factor VIIa; rFVIIa
T1 sequence 1: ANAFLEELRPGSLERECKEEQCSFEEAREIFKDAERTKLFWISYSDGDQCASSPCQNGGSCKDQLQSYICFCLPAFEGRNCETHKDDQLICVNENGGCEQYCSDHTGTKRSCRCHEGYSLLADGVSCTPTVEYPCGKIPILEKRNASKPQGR
T1 sequence 2: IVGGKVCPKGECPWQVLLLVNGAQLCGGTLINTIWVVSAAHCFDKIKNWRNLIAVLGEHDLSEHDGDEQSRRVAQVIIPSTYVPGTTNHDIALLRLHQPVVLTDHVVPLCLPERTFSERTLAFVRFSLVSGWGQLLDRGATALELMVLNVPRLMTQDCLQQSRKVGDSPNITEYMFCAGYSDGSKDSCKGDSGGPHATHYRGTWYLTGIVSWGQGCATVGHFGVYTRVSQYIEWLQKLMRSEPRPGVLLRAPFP
Assay: BLI (Fortebio)

B1: VH SEQ ID NO 546 / VL SEQ ID NO 422 (antibody, IgG4, V domains shown)
VH: QVQLQESGPGLVEPSQTLSLTCTVSGYSITSDSAWSWIRQPPGKKLEWIGYIQYSGSTNYNPSLKSRVTISRDTSKNQFSLKLSSVTAADTAVYYCARSVNYYGNSFAVGYWGQGTSVTVSS
VL: EIVLTQSPATLSLSPGERATLSCRASQGVSDYLAWYQQKPGQAPRLLIKYASQPATGIPARFSGSGSGTDFTLTISSLEPEDFAVYYCQQGHSFPLTFGQGTKLEIK
notes: humanized 11F2; IgG4 S228P/kappa
  Kd: 24 nM

B2: VH SEQ ID NO 546 / VL SEQ ID NO 470 (antibody, IgG4, V domains shown)
VH: QVQLQESGPGLVEPSQTLSLTCTVSGYSITSDSAWSWIRQPPGKKLEWIGYIQYSGSTNYNPSLKSRVTISRDTSKNQFSLKLSSVTAADTAVYYCARSVNYYGNSFAVGYWGQGTSVTVSS
VL: EIVLTQSPATLSLSPGERATLSCRASQGVSDYLHWYQQKPGQAPRLLIKYASQPATGIPARFSGSGSGTDFTLTISSLEPEDFAVYYCQNGHSFPLTFGQGTKLEIK
notes: as for B1
  Kd: 1.2 nM

B3: VH SEQ ID NO 546 / VL SEQ ID NO 438 (antibody, IgG4, V domains shown)
VH: QVQLQESGPGLVEPSQTLSLTCTVSGYSITSDSAWSWIRQPPGKKLEWIGYIQYSGSTNYNPSLKSRVTISRDTSKNQFSLKLSSVTAADTAVYYCARSVNYYGNSFAVGYWGQGTSVTVSS
VL: EIVLTQSPATLSLSPGERATLSCRASQGVSDYLAWYQQKPGQAPRLLIKYASQPATGIPARFSGSGSGTDFTLTISSLEPEDVAVYYCQNGHSFPLTFGQGTKLEIK
notes: as for B1
  Kd: 8 nM

B4: VH SEQ ID NO 546 / VL SEQ ID NO 454 (antibody, IgG4, V domains shown)
VH: QVQLQESGPGLVEPSQTLSLTCTVSGYSITSDSAWSWIRQPPGKKLEWIGYIQYSGSTNYNPSLKSRVTISRDTSKNQFSLKLSSVTAADTAVYYCARSVNYYGNSFAVGYWGQGTSVTVSS
VL: EIVLTQSPATLSLSPGERATLSCRASQGVSDYLHWYQQKPGEAPRLLIKYASQPATGIPARFSGSGSGTDFTLTISSLEPEDFAVYYCQNGHSFPLTFGQGTKLEIK
notes: as for B1
  Kd: 1.1 nM

B5: VH SEQ ID NO 546 / VL SEQ ID NO 446 (antibody, IgG4, V domains shown)
VH: QVQLQESGPGLVEPSQTLSLTCTVSGYSITSDSAWSWIRQPPGKKLEWIGYIQYSGSTNYNPSLKSRVTISRDTSKNQFSLKLSSVTAADTAVYYCARSVNYYGNSFAVGYWGQGTSVTVSS
VL: EIVLTQSPATLSLSPGERATLSCRASQGVSDYLAWYQQKPGQAPRLLIKYTSQPATGIPARFSGSGSGTDFTLTISSLEPEDFAVYYCQNGHSFPLTFGQGTKLEIK
notes: as for B1
  Kd: 10 nM

B6: VH SEQ ID NO 546 / VL SEQ ID NO 486 (antibody, IgG4, V domains shown)
VH: QVQLQESGPGLVEPSQTLSLTCTVSGYSITSDSAWSWIRQPPGKKLEWIGYIQYSGSTNYNPSLKSRVTISRDTSKNQFSLKLSSVTAADTAVYYCARSVNYYGNSFAVGYWGQGTSVTVSS
VL: EIVLTQSPATLSLSPGERATLSCRASQGVSDYLHWYQQKPGQAPRLLIKYASQPATGIPARFSGSGSGTDFTLTISSLEPEDFGVYYCQNGHSFPLTFGQGTKLEIK
notes: as for B1
  Kd: 1.1 nM

B7: VH SEQ ID NO 546 / VL SEQ ID NO 462 (antibody, IgG4, V domains shown)
VH: QVQLQESGPGLVEPSQTLSLTCTVSGYSITSDSAWSWIRQPPGKKLEWIGYIQYSGSTNYNPSLKSRVTISRDTSKNQFSLKLSSVTAADTAVYYCARSVNYYGNSFAVGYWGQGTSVTVSS
VL: EIVLTQSPATLSLSPGERATLSCRASQGVSDYLHWYQQKPGQAPRLLIKYASQPATGIPARFSGSGSGTDFTLTISSLEPEDFAVYYCQNGHSFPLTFGAGTKLEIK
notes: as for B1
  Kd: 1.1 nM

B8: VH SEQ ID NO 546 / VL SEQ ID NO 430 (antibody, IgG4, V domains shown)
VH: QVQLQESGPGLVEPSQTLSLTCTVSGYSITSDSAWSWIRQPPGKKLEWIGYIQYSGSTNYNPSLKSRVTISRDTSKNQFSLKLSSVTAADTAVYYCARSVNYYGNSFAVGYWGQGTSVTVSS
VL: EIVLTQSPATLSLSPGERATLSCRASQGVSDYLAWYQQKPGQAPRLLIKYASQPATGIPARFSGSGSGTDFTLTISSLEPEDFGVYYCQNGHSFPLTFGQGTKLEIK
notes: as for B1
  Kd: 8.1 nM

B9: VH SEQ ID NO 546 / VL SEQ ID NO 478 (antibody, IgG4, V domains shown)
VH: QVQLQESGPGLVEPSQTLSLTCTVSGYSITSDSAWSWIRQPPGKKLEWIGYIQYSGSTNYNPSLKSRVTISRDTSKNQFSLKLSSVTAADTAVYYCARSVNYYGNSFAVGYWGQGTSVTVSS
VL: EIVLTQSPATLSLSPGERATLSCRASQGVSDYLHWYQQKPGQAPRLLIKYASQPATGIPARFSGSGSGTDFTLTISSLEPEDFAVYYCQQGHSFPLTFGQGTKLEIK
notes: as for B1
  Kd: 2 nM
